{
  "source": "patent US20040161798A1",
  "key": {"His6Gal80, P04387 [1]": {"molecular_target": "T1, His6Gal80, P04387", "T1 chain": "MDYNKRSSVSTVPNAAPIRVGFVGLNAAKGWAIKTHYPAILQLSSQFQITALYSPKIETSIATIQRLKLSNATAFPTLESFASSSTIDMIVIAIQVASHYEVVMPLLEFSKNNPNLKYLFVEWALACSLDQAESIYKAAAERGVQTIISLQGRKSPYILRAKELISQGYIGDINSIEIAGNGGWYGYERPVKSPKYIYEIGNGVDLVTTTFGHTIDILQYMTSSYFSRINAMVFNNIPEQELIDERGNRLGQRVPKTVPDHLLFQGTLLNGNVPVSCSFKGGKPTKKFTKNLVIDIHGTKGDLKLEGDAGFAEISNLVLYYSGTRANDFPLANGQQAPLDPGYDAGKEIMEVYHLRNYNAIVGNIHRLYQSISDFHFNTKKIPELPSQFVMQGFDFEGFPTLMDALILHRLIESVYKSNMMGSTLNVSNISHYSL", "experiment": "dilution assay on TentaGel beads, Western blot"}, "His6Gal80, P04387 [2]": {"molecular_target": "T1, His6Gal80, P04387", "experiment": "capture of Gal80 by 2 mg of TentaGel-Gal80bp at the higher protein concentrations, Western blot"}, "His6Gal80, P04387 [3]": {"molecular_target": "T1, His6Gal80, P04387", "experiment": "fluorescence polarization titration of fluorescein-labeled peptide in solution"}, "His6Gal80, P04387 [4]": {"molecular_target": "T1, His6Gal80, P04387", "experiment": "capture of dilute Gal80 (0.4 nM) by TentaGel-Gal80bp, Western blot"}, "His6Gal80, P04387 [5]": {"molecular_target": "T1, His6Gal80, P04387", "experiment": "capture of dilute Gal80 by TentaGel-Gal80bp, Western blot against a calibration blot"}, "His6Gal80, P04387 [6]": {"molecular_target": "T1, His6Gal80, P04387", "experiment": "fluorescence polarization after adding excess unlabeled peptide"}, "His6Gal80, P04387 [7]": {"molecular_target": "T1, His6Gal80, P04387", "experiment": "fluorescence polarization in solution: fluorescein-labelled peptide titrated with Gal80 protein"}},
  "data": [
    {"binder": "YDQDMQNNTFDDLFWKEGHR (modifications not checked)", "note": "[Gal80bp]", "values": [
      {"measurement": "bound protein left on the beads (percent of the original level)", "setting": "His6Gal80, P04387 [1]", "result": 50, "unit": "%"},
      {"measurement": "amount of protein retained on the beads", "setting": "His6Gal80, P04387 [2]", "result": 50, "unit": "ng"},
      {"measurement": "Kd", "setting": "His6Gal80, P04387 [3]", "result": 300, "unit": "nM"},
      {"measurement": "percent of the protein bound to the beads", "setting": "His6Gal80, P04387 [4]", "result": 100, "unit": "%"},
      {"measurement": "Kd", "setting": "His6Gal80, P04387 [5]", "result": "< 0.4", "unit": "nM"},
      {"measurement": "half-life of the complex in solution", "setting": "His6Gal80, P04387 [6]", "result": "< 10", "unit": "s"},
      {"measurement": "Kd", "setting": "His6Gal80, P04387 [7]", "result": 200, "unit": "nM"}
    ]}
  ]
}
